Laboratory results taken from the nanobody polyreactivity screen of Harvey et al. (2022).

Assay: yeast display, Sf9 membrane polyspecificity reagent, FACS + sequencing; frameworks hold sequencing errors
How it was run: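 Genes from sorted yeast were amplified by colony PCR, read by MiSeq 2 × 250 sequencing and filtered on CDR length. These cells carried a synthetic nanobody library in Saccharomyces cerevisiae BJ5465 and were sorted by FACS into low and high (top ~1%) gates on anti-HA and streptavidin fluorescence. Polyreactivity is labelled according to the gate of origin.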

| Sequence | polyreactivity (PSR sort gate) |
| --- | --- |
| QVQLVESGGGLVQAGGSLRLSCAASGSTFFHYAMGWYRQAPGKERELVAAISGSGGSTYYADSVKGRFTISRDNAKNTVYLQMNSLKPEDTAVYYCNARVWHYTSRTTFDYWGQGTQVTVSS | low polyreactivity |
| QVQLVESGGGLVQAGGSRRLSCAASGSTFRINAMGWYRQAPGKERELVADINSGGNTTYADSVKGRFTISRDNAKNTVYLQMNSLKPEDTAVYYCAADPVFDLWEFLLDYGYDYWGQGTQVTVSS | low polyreactivity |
| QVQLVESGGGLVQAGGSLRLSCAASGSIFINNMGWYRQAPGKERELVAAISNSGGRTYYADSVKGRFTISRDNAKNTVYLQMNSLKPEDTAVYYCAKKSNRLPYGYWGQGTQVTVSS | high polyreactivity |
| QVQLVESGGGLVQAGGSLPLSCAASGITFRYYAMGWYRQAPGKERELVAAITRGGRTNYADSVKGRFTISRDNAKNTVYLQMNSLKPEDTAVYYCATGRDSNFGNSYYYWGQGTQVTVSS | high polyreactivity |
| QVQLVESGGGLVQAGGSLRLSCAASGLIFIDYAIGWYRQAPGKERELVAAITRGGARTYYADSVKGRFTISRDNAKNTVYLEMNSLKPEDTAVYYCAADRPGSRYIDVDYWGQGTQVTVSS | high polyreactivity |
| QVQRVESGGGLVQAGGSLRLTCAASGLTFRTYAMGWYRQAPGKERELVAAISGTGGTTYYADSVKGRFTISRDNAKNTVYLQMNSLKPEDTAVYYCNKRWRRPYPYDYWGQGSQVTVSS | high polyreactivity |
| QVQLVESGGGLVQAGGSLRLSCAASGSTFGWYAMGWYRQAPGKERELVATISSGGSTYYADSVKGRFTISRDNAKNTVYLQMNCLKPEDTAVYYCAADYLTPWVYWFSYGLDYWGQGTQVTVSS | low polyreactivity |
| QVQLVESRGGLVQAGGSLRLSCADSGITFYVYTMGWNIKAPGKQRDLVASISGRGGSTYYAVSVKGRFTISRDNAKNTVYLQMNSLKPEDTAVYYCEAYRLRFWSMDYWGQGTQVTGSS | high polyreactivity |
| QVQLVESGGGLVQAGGSLRLSSAASGFTFSAYAMGWYRQAPGKEREMVATITSGGSTNYADSVKGRFTISRDNAKNTVYLQMNSLIPEDTAVYYCAADVGWLYYYPKYYYWGQGTQVTVSW | low polyreactivity |
| QVHLVESGGGLVQAGGSLRLSCAASGFIFAGYTMGWYRQAPRKERELVAAINSGGSTKYADSVKGRFTISRDNAKNTVYLQMNSLKPEDTAVSYCNADYGWYFLFDYWGQGTQVTVSS | low polyreactivity |
| QDQLVESGGGLVQAGGRLRLSCAASGSTFRRYAMGWYRQAPGTERDWVAAISGGGGSTYYADSVKGRFTISRDNAKNTVYLQMNSLKPEDTAVYYCNIPFPYYPDGPNGYDYWGQGTQVTVSS | low polyreactivity |
| QVQLVESGGGLVQAGGSLRLSCAASGYIFDYYAMGWYRQAPGKESELVAAISSSGGTTYYADSVKGRFTISRDNAKNTFYLQMNSLKPEDTAVYYCAARKSRWHRGYYYWGQGTQVTVSS | high polyreactivity |
| QVQLVESGGGLVQAGGSLRLSCAASGSTFRDYAMGWYRQAPGKERELVAAITQNGGSTYYADSVKGRFTISRDNAKNSVYLQMNSLKPEDTAVYDCAADSDWFVWQEDYWGQGTQVTVSS | low polyreactivity |
| QVQLEESGGGLVQAGGSLRLSCAASGRIFYLNAIGWYRQAPRKATELVAAINTSGDSTYYADSVKGRFTISRDNAKNTVYLQMNSLKPEDTAVYYCAAFGIGPDQFIYDYWGQGTKVTVSS | low polyreactivity |
| QVQLVESGGGLVQAGGSLRLSCAASGYTFSHYAMGWYRQAPGKERELVAGITWSGGSTYYADSVKGRFTISRDYAKNTVYLQMNSLKPEDTSVYYCAAKYYWYYSYSGIPLFDYWGQGTQVTVSS | low polyreactivity |
| QVQLVESGGGLVQAGGSLRLSCAASGITFARYTMGWYRQAPGKERELVAAISWSGTSTYYADSVKGRFTISRDNAKNTVYLQMNSLKPEDTAVYYCAAGYSASRKVDYWGQGTQVTVSS | high polyreactivity |

| Sequence | polyreactivity (PSR sort gate) |
| --- | --- |
| QVKLVESGGGLVQAGGSLRLSCAASGNTLYFNAMGWYRQAPGKERELVADISWGGGSTDYADSVKGRFTISRDNAKNTVYLQMNSLKPEDTAVYYCAADILSLPEYDYWGQGTQVTVSS | low polyreactivity |
| QVQLVESGGGLVQAGGSLRLSCAASGRIFYRYAMGWYRQAPGKERELVAAISRTGSRTYYADSVKGRFTISRDNAKNTVYLQMNSLKPEDTAVYYCNKVSAPAEFRSRGYWGQGTQVTVSS | high polyreactivity |
| QVQLVESGGGLVQAGGSLRLSCAASGSTFQRYAMGWYRQAPGKERELVAAITSGGSTYYADSVKGRFTISRDNAKNTVYLQMNSQKPEDTAVYYCNAAWFYRYGYWGQGTQVTVSS | high polyreactivity |
| QVQLQESGDGLVQAVGSLRLSCAASGYSSGYYYMGWYRQAPGKERELVAGIDAFGISTNYADCVKGRFTISRDNAKNTVYLQMTSLKPEDTAVYYCAARPDGDRLFSYWGQGTQVTVSI | low polyreactivity |
| QVQLVESGGGLVQAGGSLRLSCAASGITFYIYAMGWYRQAPGKERELVATISWSDGRTYYADSVKGRITISRDNAKNTVYLQMNSLKPEDTAVYYCAADWWYYQFDYEYWGQGTQVTVSS | low polyreactivity |
| QVQLVESGGGLVQAGGSLRLSCAASGSTLYYYAMGWSRQAPGKERELVAAISWSGGITYYADSVKGRFTISRDNAKNTVYLQMNSLKPEDTAVYYCAADKYQGYTFYQGYPGGGGYWGQGTQVTVSS | low polyreactivity |
| QVQLVESGGGLVQPGGSLRLSCAASGIIFDVYAMGWYRQAPGKERELVAGISSGGSTYYADSVKGRFTISRDNAKNTVYFQMNSLKPEDTAVYYCNADGGYSYESTDHYGYDYWGQGTQVTVSS | low polyreactivity |
| QVQLVESGGGLVQAGGSLRLSCAASGYIIWDYAMGWYRQAPGKEREFVATISRSVGSTYYADSVKGRFTISRDNAKNTVYLQMNSLKPEDTAVYYCAAVTWGEGFDYWGQGTQVTVSS | low polyreactivity |
| QVQLVESGGALVQAGGSLRLSCAASRSIFSNAMGWYRQAPRKERELDAAITGRGGRTYYADSVKGRFTISRDNAKYTVYLQMNSLNPEDTAVYYCARDSPWSSRYRYRAFDYWGQGTQVTVSS | high polyreactivity |
| QVQLVESGGGLVQAGGSLRLSCAASGFTFTYYAMGWYRQAPGKERELVAAISWSGDSTYYADSVKGRFTISRDNAKNTVYLQMNSLKPEDTAVYYCATEYSHTYDYWGQGTQVTVSS | low polyreactivity |
| QVQLVESGGGLVQAGGSLRLSCAASGGIFGAYAMGWYRQAPGKERELVAASDLTDGDTYYADSVKGRFTSSRDNAKNTVYLQMNSLKPEATAVYYCAAEALYWVVDALDYEGDYWGQGTQVTVSS | high polyreactivity |
| QVQLVESGGGLVQAGGSLRLRCAASGSTFDSYAMGWYRQAPGKERELVAAITTTGGSTFYADSVKGRFTISRDYAKNTVYLQMNSLKPEDTAVYYCAADDGWQEFEYWGQGTQVTVSS | low polyreactivity |
| QVQLVESGGGLVQAGGSLRLSCAASGSTLVYNDMGWYRQAPGKEREFVAAIRSNDGSTYYADSVKGRFTISRDNAKNTVYLQMNSLKPEDTAVYYCATTQAYRGENYNYWGQGTQVTVSS | low polyreactivity |
| QVQLVESGGGLVQAGGSLRLSCGASGYIFDRYPMGWYRQAPGKEREVVASISRRGGSTYYADSVKGRFTISRDNAKNTVYLQMNSLKPEATAVYYCAAKWPFRRSAVVRYDYWGQGTQVTVSS | high polyreactivity |
| QVQHVESGGGLVQAGGSLRLSCAASGITFVLNSMGWSRPAPGKERELVAAIDTSGADTYYADSVKGRFTISRDNAKNTVYLQMNSLKPEDTAVYYCAAETITDDSYEYDYWGQGTQVTVSS | low polyreactivity |
| QVQLVESGGGLVQAGGSLRLSCAASGYIFSSYAMGWYRQAPGKERELVAAISWTGGTYYADSVKGRFTISRDNAKNTVYLQMNSLNPEDTAVYYCAVRYKRKGSGYRTNAYDYWGQGTQVTVSS | high polyreactivity |
